# Measurements from EP2025683A1 (INSERM (Institut National de la Santé et de la Recherche …, dated 2009).
# T1: human prolactin receptor (human, UniProt P16471 25-622)
# T1 sequence (looked up): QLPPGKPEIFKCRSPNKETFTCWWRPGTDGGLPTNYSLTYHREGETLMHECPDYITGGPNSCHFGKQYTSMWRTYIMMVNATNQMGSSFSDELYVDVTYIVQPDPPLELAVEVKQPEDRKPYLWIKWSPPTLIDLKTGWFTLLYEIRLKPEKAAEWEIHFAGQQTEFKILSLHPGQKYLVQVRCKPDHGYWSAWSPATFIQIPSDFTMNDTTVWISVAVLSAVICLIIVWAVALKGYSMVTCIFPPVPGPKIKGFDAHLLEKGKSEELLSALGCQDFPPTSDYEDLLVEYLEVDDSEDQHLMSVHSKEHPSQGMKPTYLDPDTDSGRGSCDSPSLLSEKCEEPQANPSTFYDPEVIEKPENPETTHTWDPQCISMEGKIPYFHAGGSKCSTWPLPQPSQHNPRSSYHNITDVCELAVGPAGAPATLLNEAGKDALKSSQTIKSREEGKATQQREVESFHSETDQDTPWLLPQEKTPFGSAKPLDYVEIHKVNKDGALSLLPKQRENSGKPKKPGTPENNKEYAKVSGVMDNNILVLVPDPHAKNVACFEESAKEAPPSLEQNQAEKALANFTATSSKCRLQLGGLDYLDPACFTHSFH
# Target: T1, human prolactin receptor
# Test: cell-based or functional assay
Molecule,Agonism Ba/F-LP cells (% of hPRL max activity) (% of hPRL max activity),Antagonism HL-5 cells IC50 [nM],Agonism Ba/F-LP cells (% of hPRL max activity)
Del1-9-G129R-hPRL (from UniProt P01236 29-227) (ligand),8.3,120,
"G129D-hPRL (ligand, human, UniProt P01236 29-227, looked up) LPICPGGAARCQVTLRDLFDRAVVLSHYIHNLSSEMFSEFDKRYTHGRGFITKAINSCHTSSLATPEDKEQAQQMNQKDFLSLIVSILRSWNEPLYHLVTEVRGMQEAPEAILSKAVEIEEQTKRLLEDMELIVSQVHPETKENEIYPVWSGLPSLQMADEESRLSAYYNLLHCLRRDSHKIDNYLKLLKCRIIHNNNC",,340,23.6 % of hPRL max activity
"G129N-hPRL (ligand, human, UniProt P01236 29-227, looked up) LPICPGGAARCQVTLRDLFDRAVVLSHYIHNLSSEMFSEFDKRYTHGRGFITKAINSCHTSSLATPEDKEQAQQMNQKDFLSLIVSILRSWNEPLYHLVTEVRGMQEAPEAILSKAVEIEEQTKRLLENMELIVSQVHPETKENEIYPVWSGLPSLQMADEESRLSAYYNLLHCLRRDSHKIDNYLKLLKCRIIHNNNC",,130,26.4 % of hPRL max activity
"G129P-hPRL (ligand, human, UniProt P01236 29-227, looked up) LPICPGGAARCQVTLRDLFDRAVVLSHYIHNLSSEMFSEFDKRYTHGRGFITKAINSCHTSSLATPEDKEQAQQMNQKDFLSLIVSILRSWNEPLYHLVTEVRGMQEAPEAILSKAVEIEEQTKRLLEPMELIVSQVHPETKENEIYPVWSGLPSLQMADEESRLSAYYNLLHCLRRDSHKIDNYLKLLKCRIIHNNNC",,340,90.4 % of hPRL max activity
"G129L-hPRL (ligand, human, UniProt P01236 29-227, looked up) LPICPGGAARCQVTLRDLFDRAVVLSHYIHNLSSEMFSEFDKRYTHGRGFITKAINSCHTSSLATPEDKEQAQQMNQKDFLSLIVSILRSWNEPLYHLVTEVRGMQEAPEAILSKAVEIEEQTKRLLELMELIVSQVHPETKENEIYPVWSGLPSLQMADEESRLSAYYNLLHCLRRDSHKIDNYLKLLKCRIIHNNNC",,160,16.8 % of hPRL max activity

# Second part, the molecule after the results:
Agonism Ba/F-LP cells (% of hPRL max activity) (% of hPRL max activity),Antagonism HL-5 cells IC50 [nM],Agonism Ba/F-LP cells (% of hPRL max activity),Molecule
,110,19.1 % of hPRL max activity,"G129F-hPRL (ligand, human, UniProt P01236 29-227, looked up) LPICPGGAARCQVTLRDLFDRAVVLSHYIHNLSSEMFSEFDKRYTHGRGFITKAINSCHTSSLATPEDKEQAQQMNQKDFLSLIVSILRSWNEPLYHLVTEVRGMQEAPEAILSKAVEIEEQTKRLLEFMELIVSQVHPETKENEIYPVWSGLPSLQMADEESRLSAYYNLLHCLRRDSHKIDNYLKLLKCRIIHNNNC"
,200,45.5 % of hPRL max activity,"G129R-hPRL (ligand, human, UniProt P01236 29-227, looked up, mature) LPICPGGAARCQVTLRDLFDRAVVLSHYIHNLSSEMFSEFDKRYTHGRGFITKAINSCHTSSLATPEDKEQAQQMNQKDFLSLIVSILRSWNEPLYHLVTEVRGMQEAPEAILSKAVEIEEQTKRLLERMELIVSQVHPETKENEIYPVWSGLPSLQMADEESRLSAYYNLLHCLRRDSHKIDNYLKLLKCRIIHNNNC"
,110,14.2 % of hPRL max activity,"G129V-hPRL (ligand, human, UniProt P01236 29-227, looked up) LPICPGGAARCQVTLRDLFDRAVVLSHYIHNLSSEMFSEFDKRYTHGRGFITKAINSCHTSSLATPEDKEQAQQMNQKDFLSLIVSILRSWNEPLYHLVTEVRGMQEAPEAILSKAVEIEEQTKRLLEVMELIVSQVHPETKENEIYPVWSGLPSLQMADEESRLSAYYNLLHCLRRDSHKIDNYLKLLKCRIIHNNNC"
,190,24.3 % of hPRL max activity,"G129Y-hPRL (ligand, human, UniProt P01236 29-227, looked up) LPICPGGAARCQVTLRDLFDRAVVLSHYIHNLSSEMFSEFDKRYTHGRGFITKAINSCHTSSLATPEDKEQAQQMNQKDFLSLIVSILRSWNEPLYHLVTEVRGMQEAPEAILSKAVEIEEQTKRLLEYMELIVSQVHPETKENEIYPVWSGLPSLQMADEESRLSAYYNLLHCLRRDSHKIDNYLKLLKCRIIHNNNC"

# Target: T1, human prolactin receptor
# Test: displacement of [125I]-hPRL, homogenates of HEK 293 cells stably expressing hPRLR (HL-5 clone)
IC50 [nM],affinity relative to WT hPRL,Molecule
19,~1 order of magnitude lower than WT hPRL,"G129R-hPRL (ligand, human, UniProt P01236 29-227, looked up, mature) LPICPGGAARCQVTLRDLFDRAVVLSHYIHNLSSEMFSEFDKRYTHGRGFITKAINSCHTSSLATPEDKEQAQQMNQKDFLSLIVSILRSWNEPLYHLVTEVRGMQEAPEAILSKAVEIEEQTKRLLERMELIVSQVHPETKENEIYPVWSGLPSLQMADEESRLSAYYNLLHCLRRDSHKIDNYLKLLKCRIIHNNNC"
